32 molecules from patent US20240270846A1 (published 2024) can be followed below.

Changes are numbered by the printed parent chain. Names may count otherwise.

The labels stand for the following.
B1: GLS3000 H34L one-arm antibody (antibody, human IgG1, kappa, L234A L235A, N297A, name in Kabat numbering)
light: DIVMTQSPLSLPVTPGEPASISCRSSQSLVHSNRNTYLLWYQQKPGQAPRLLIYKVSNRFSGVPDRFSGSGSGTDFTLKISRVEAEDVGVYYCGQGTQVPYTFGQGTKLEIKRTVAAPSVFIFPPSDEQLKSGTASVVCLLNNFYPREAKVQWKVDNALQSGNSQESVTEQDSKDSTYSLSSTLTLSKADYEKHKVYACEVTHQGLSSPVTKSFNRGEC
heavy: QVQLVESGGGVVQPGRSLRLSCAASGFTFSNAWMHWVRQAPGKGLEWVAQIKAKSNNYATYYAESVKGRFTISRDDSKNSLYLQMNSLKTEDTAVYYCRYVHYGAYYGVDAWGQGTTVTVSSASTKGPSVFPLAPSSKSTSGGTAALGCLVKDYFPEPVTVSWNSGALTSGVHTFPAVLQSSGLYSLSSVVTVPSSSLGTQTYICNVNHKPSNTKVDKKVEPKSCDKTHTCPPCPAPEAAGGPSVFLFPPKPKDTLMISRTPEVTCVVVDVSHEDPEVKFNWYVDGVEVHNAKTKPREEQYASTYRVVSVLTVLHQDWLNGKEYKCKVSNKALPAPIEKTISKAKGQPREPQVYTLPPSRCELTKNQVSLSCAVKGFYPSDIAVEWESNGQPENNYKTTPPVLDSDGSFFLVSKLTVDKSRWQQGNVFSCSVMHEALHNHYTQKSLSLSPDYKDDDDK
chain: EPKSSDKTHTCPPCPAPELLGGPSVFLFPPKPKDTLMISRTPEVTCVVVDVSHEDPEVKFNWYVDGVEVHNAKTKPREEQYNSTYRVVSVLTVLHQDWLNGKEYKCKVSNKALPAPIEKTISKAKGQPREPQVCTLPPSRDELTKNQVSLWCLVKGFYPSDIAVEWESNGQPENNYKTTPPVLDSDGSFFLYSKLTVDKSRWQQGNVFSCSVMHEALHNRYTQKSLSLSP
B2: GLS3000 H34Y one-arm antibody (antibody, human IgG1, kappa, L234A L235A, N297A, name in Kabat numbering)
light: B1 light with L39Y
heavy: B1 heavy
chain: B1 chain
B3: GLS3000 N53H one-arm antibody (antibody, human IgG1, kappa, L234A L235A, N297A, name in Kabat numbering)
light: B1 light with L39H, N58H
heavy: B1 heavy
chain: B1 chain
B4: GLS3000 K107E one-arm antibody (antibody, human IgG1, kappa, L234A L235A, N297A, name in Kabat numbering)
light: B1 light with L39H, K112E
heavy: B1 heavy
chain: B1 chain
B5: GLS3000 L33P one-arm antibody (antibody, human IgG1, kappa, L234A L235A, N297A, name in Kabat numbering)
light: B1 light with L38P, L39H
heavy: B1 heavy
chain: B1 chain
B6: GLS3000 L33E one-arm antibody (antibody, human IgG1, kappa, L234A L235A, N297A, name in Kabat numbering)
light: B1 light with L38E, L39H
heavy: B1 heavy
chain: B1 chain
B7: GLS3000 K50S one-arm antibody (antibody, human IgG1, kappa, L234A L235A, N297A, name in Kabat numbering)
light: B1 light with L39H, K55S
heavy: B1 heavy
chain: B1 chain
B8: GLS3000 K50R one-arm antibody (antibody, human IgG1, kappa, L234A L235A, N297A, name in Kabat numbering)
light: B1 light with L39H, K55R
heavy: B1 heavy
chain: B1 chain
B9: GLS3000 K50Q one-arm antibody (antibody, human IgG1, kappa, L234A L235A, N297A, name in Kabat numbering)
light: B1 light with L39H, K55Q
heavy: B1 heavy
chain: B1 chain
B10: GLS3000 H34W one-arm antibody (antibody, human IgG1, kappa, L234A L235A, N297A, name in Kabat numbering)
light: B1 light with L39W
heavy: B1 heavy
chain: B1 chain
B11: GLS3000 N53G one-arm antibody (antibody, human IgG1, kappa, L234A L235A, N297A, name in Kabat numbering)
light: B1 light with L39H, N58G
heavy: B1 heavy
chain: B1 chain
B12: GLS3000 K50L one-arm antibody (antibody, human IgG1, kappa, L234A L235A, N297A, name in Kabat numbering)
light: B1 light with L39H, K55L
heavy: B1 heavy
chain: B1 chain
B13: GLS3000 K50G one-arm antibody (antibody, human IgG1, kappa, L234A L235A, N297A, name in Kabat numbering)
light: B1 light with L39H, K55G
heavy: B1 heavy
chain: B1 chain
B14: GLS3000 K50Y one-arm antibody (antibody, human IgG1, kappa, L234A L235A, N297A, name in Kabat numbering)
light: B1 light with L39H, K55Y
heavy: B1 heavy
chain: B1 chain
B15: GLS3000 K74T one-arm antibody (antibody, human IgG1, kappa, L234A L235A, N297A, name in Kabat numbering)
light: B1 light with L39H, K79T
heavy: B1 heavy
chain: B1 chain
B16: GLS3000 K50T one-arm antibody (antibody, human IgG1, kappa, L234A L235A, N297A, name in Kabat numbering)
light: B1 light with L39H, K55T
heavy: B1 heavy
chain: B1 chain
B17: GLS3000 K50P one-arm antibody (antibody, human IgG1, kappa, L234A L235A, N297A, name in Kabat numbering)
light: B1 light with L39H, K55P
heavy: B1 heavy
chain: B1 chain
B18: GLS3000 H34V one-arm antibody (antibody, human IgG1, kappa, L234A L235A, N297A, name in Kabat numbering)
light: B1 light with L39V
heavy: B1 heavy
chain: B1 chain
B19: GLS3000 L33I one-arm antibody (antibody, human IgG1, kappa, L234A L235A, N297A, name in Kabat numbering)
light: B1 light with L38I, L39H
heavy: B1 heavy
chain: B1 chain
B20: GLS3000 H34P one-arm antibody (antibody, human IgG1, kappa, L234A L235A, N297A, name in Kabat numbering)
light: B1 light with L39P
heavy: B1 heavy
chain: B1 chain
B21: GLS3000 H34M one-arm antibody (antibody, human IgG1, kappa, L234A L235A, N297A, name in Kabat numbering)
light: B1 light with L39M
heavy: B1 heavy
chain: B1 chain
B22: GLS3000 N53F one-arm antibody (antibody, human IgG1, kappa, L234A L235A, N297A, name in Kabat numbering)
light: B1 light with L39H, N58F
heavy: B1 heavy
chain: B1 chain
B23: GLS3000 H34Q one-arm antibody (antibody, human IgG1, kappa, L234A L235A, N297A, name in Kabat numbering)
light: B1 light with L39Q
heavy: B1 heavy
chain: B1 chain
B24: GLS3000 H34S one-arm antibody (antibody, human IgG1, kappa, L234A L235A, N297A, name in Kabat numbering)
light: B1 light with L39S
heavy: B1 heavy
chain: B1 chain
B25: GLS3000 L33F one-arm antibody (antibody, human IgG1, kappa, L234A L235A, N297A, name in Kabat numbering)
light: B1 light with L38F, L39H
heavy: B1 heavy
chain: B1 chain
B26: GLS3000 H34R one-arm antibody (antibody, human IgG1, kappa, L234A L235A, N297A, name in Kabat numbering)
light: B1 light with L39R
heavy: B1 heavy
chain: B1 chain
B27: GLS3000 N53E one-arm antibody (antibody, human IgG1, kappa, L234A L235A, N297A, name in Kabat numbering)
light: B1 light with L39H, N58E
heavy: B1 heavy
chain: B1 chain
B28: GLS3000 H34T one-arm antibody (antibody, human IgG1, kappa, L234A L235A, N297A, name in Kabat numbering)
light: B1 light with L39T
heavy: B1 heavy
chain: B1 chain
B29: GLS3000 K50E one-arm antibody (antibody, human IgG1, kappa, L234A L235A, N297A, name in Kabat numbering)
light: B1 light with L39H, K55E
heavy: B1 heavy
chain: B1 chain
B30: GLS3000 L33M one-arm antibody (antibody, human IgG1, kappa, L234A L235A, N297A, name in Kabat numbering)
light: B1 light with L38M, L39H
heavy: B1 heavy
chain: B1 chain
B31: GLS3000 L33V one-arm antibody (antibody, human IgG1, kappa, L234A L235A, N297A, name in Kabat numbering)
light: B1 light with L38V, L39H
heavy: B1 heavy
chain: B1 chain
B32: GLS3000 H34N one-arm antibody (antibody, human IgG1, kappa, L234A L235A, N297A, name in Kabat numbering)
light: B1 light with L39N
heavy: B1 heavy
chain: B1 chain

T1 sequence (P07766 23-126): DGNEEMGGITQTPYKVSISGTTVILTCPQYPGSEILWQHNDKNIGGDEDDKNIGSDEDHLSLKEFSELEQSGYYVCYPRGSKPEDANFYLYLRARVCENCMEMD

The experiment has as its target T1, CD3 epsilon homodimer protein (UniProt P07766 23-126).
T1 construct: Construct of the homodimer is not described; also called CD3 (CD3 epsilon)
Description: SPR Biacore T200, CD3e homodimer on chip, antibody analyte.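 Note: CD3 epsilon homodimer amine-coupled on CM4 sensor chip, antibodies injected as analyte at 25 °C in HBS-EP+, ratio ≥0.8 taken as binding retained versus unaltered parent antibody.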
For B1, the “ratio of amounts bound (altered form/GLS3000)” value turned out to be 0.59.
As for B2, the figure is 0.59.
As for B3, the figure is 1.18; as for B4, 0.94; as for B5, 0.3.
As for B6, the figure is 0.72; as for B7, 0.23.
For the molecule B8, the “ratio of amounts bound (altered form/GLS3000)” value was found to be 0.5.
Take B9: the “ratio of amounts bound (altered form/GLS3000)” value was found to be 0.18.
On to B10, for which the “ratio of amounts bound (altered form/GLS3000)” value turned out to be 0.24.
The result for B11 reads 0.76; that for B12, 0.24.
In the case of B13, the “ratio of amounts bound (altered form/GLS3000)” value turned out to be 0.16.
Consider B14, for which the “ratio of amounts bound (altered form/GLS3000)” value came out at 0.24.
As for B15, the figure is 0.84; as for B16, 0.19.
As for B17, the figure is 0.3; as for B18, 0.85; as for B19, 0.83.
As to B20, the “ratio of amounts bound (altered form/GLS3000)” value is 0.34.
As for B21, the figure is 0.35; as for B22, 0.69; as for B23, 0.25.
Turning to B24, the “ratio of amounts bound (altered form/GLS3000)” value is 0.78.
As for B25, the figure is 0.78.
In the case of B26, the “ratio of amounts bound (altered form/GLS3000)” value worked out at 0.2.
The result for B27 reads 0.54.
On to B28, for which the “ratio of amounts bound (altered form/GLS3000)” value was determined as 0.89.
B29: the “ratio of amounts bound (altered form/GLS3000)” value came out at 0.24.
The result for B30 reads 0.93.
For B31, the “ratio of amounts bound (altered form/GLS3000)” value came to 1.05.
As for B32, the figure is 0.65.
